Assay results from paper PMC11089037, “Structural basis of negative regulation of CRISPR-Cas7-11 by TPR-CHAT”.

Assays:
DiCas7-11;DiTPR-CHAT NTD = DiCas7-11;DiTPR-CHAT NTD (Desulfonema ishimotonii;Desulfonema …, UniProt A0A401FT36;A0A401FT52 1-1601;1-65, |); test: cryo-EM; with TPR-CHAT NTD; EMSA: 40 mM Tris-HCl pH 7.5, 60 mM NaCl, 6 mM MgCl2, 30 min at 4 C; 15% native PAGE; cryo-EM samples: 20 mM HEPES-NaOH pH 8.0, 300 mM NaCl, 0.5 mM DTT; details: protein: recombinant;recombinant; tags: N-terminal 8xHis-SUMO-TEV;C-terminal 2xStrep; copies: 1;1; single strand, V-shaped 5' repeat
DiCas7-11;DiTPR-CHAT = DiCas7-11;DiTPR-CHAT (Desulfonema ishimotonii;Desulfonema …, UniProt A0A401FT36;A0A401FT52 1-1601;1-751, |); test: cryo-EM; with full-length TPR-CHAT; EMSA: 40 mM Tris-HCl pH 7.5, 60 mM NaCl, 6 mM MgCl2, 30 min at 4 C; 15% native PAGE; cryo-EM samples: 20 mM HEPES-NaOH pH 8.0, 300 mM NaCl, 0.5 mM DTT; details: protein: recombinant;recombinant; tags: N-terminal 8xHis-SUMO-TEV;C-terminal 2xStrep; copies: 1;1; single strand, V-shaped 5' repeat
DiCas7-11 = DiCas7-11 (Desulfonema ishimotonii, UniProt A0A401FT36 1-1601); test: cryo-EM; EMSA: 40 mM Tris-HCl pH 7.5, 60 mM NaCl, 6 mM MgCl2, 30 min at 4 C; 15% native PAGE; cryo-EM samples: 20 mM HEPES-NaOH pH 8.0, 300 mM NaCl, 0.5 mM DTT; details: protein: recombinant; tags: N-terminal 8xHis-SUMO-TEV; single strand, V-shaped 5' repeat
DiCas7-11Inactive = DiCas7-11Inactive (Desulfonema ishimotonii, UniProt A0A401FT36 1-1601, D429A;D654A); test: cryo-EM; pre-crRNA at 1:2 molar ratio; target RNA not seen in the map; EMSA: 40 mM Tris-HCl pH 7.5, 60 mM NaCl, 6 mM MgCl2, 30 min at 4 C; 15% native PAGE; cryo-EM samples: 20 mM HEPES-NaOH pH 8.0, 300 mM NaCl, 0.5 mM DTT; details: protein: recombinant; tags: N-terminal 8xHis-SUMO-TEV
Chain of DiCas7-11Inactive (A0A401FT36 entry or part of it D429A;D654A): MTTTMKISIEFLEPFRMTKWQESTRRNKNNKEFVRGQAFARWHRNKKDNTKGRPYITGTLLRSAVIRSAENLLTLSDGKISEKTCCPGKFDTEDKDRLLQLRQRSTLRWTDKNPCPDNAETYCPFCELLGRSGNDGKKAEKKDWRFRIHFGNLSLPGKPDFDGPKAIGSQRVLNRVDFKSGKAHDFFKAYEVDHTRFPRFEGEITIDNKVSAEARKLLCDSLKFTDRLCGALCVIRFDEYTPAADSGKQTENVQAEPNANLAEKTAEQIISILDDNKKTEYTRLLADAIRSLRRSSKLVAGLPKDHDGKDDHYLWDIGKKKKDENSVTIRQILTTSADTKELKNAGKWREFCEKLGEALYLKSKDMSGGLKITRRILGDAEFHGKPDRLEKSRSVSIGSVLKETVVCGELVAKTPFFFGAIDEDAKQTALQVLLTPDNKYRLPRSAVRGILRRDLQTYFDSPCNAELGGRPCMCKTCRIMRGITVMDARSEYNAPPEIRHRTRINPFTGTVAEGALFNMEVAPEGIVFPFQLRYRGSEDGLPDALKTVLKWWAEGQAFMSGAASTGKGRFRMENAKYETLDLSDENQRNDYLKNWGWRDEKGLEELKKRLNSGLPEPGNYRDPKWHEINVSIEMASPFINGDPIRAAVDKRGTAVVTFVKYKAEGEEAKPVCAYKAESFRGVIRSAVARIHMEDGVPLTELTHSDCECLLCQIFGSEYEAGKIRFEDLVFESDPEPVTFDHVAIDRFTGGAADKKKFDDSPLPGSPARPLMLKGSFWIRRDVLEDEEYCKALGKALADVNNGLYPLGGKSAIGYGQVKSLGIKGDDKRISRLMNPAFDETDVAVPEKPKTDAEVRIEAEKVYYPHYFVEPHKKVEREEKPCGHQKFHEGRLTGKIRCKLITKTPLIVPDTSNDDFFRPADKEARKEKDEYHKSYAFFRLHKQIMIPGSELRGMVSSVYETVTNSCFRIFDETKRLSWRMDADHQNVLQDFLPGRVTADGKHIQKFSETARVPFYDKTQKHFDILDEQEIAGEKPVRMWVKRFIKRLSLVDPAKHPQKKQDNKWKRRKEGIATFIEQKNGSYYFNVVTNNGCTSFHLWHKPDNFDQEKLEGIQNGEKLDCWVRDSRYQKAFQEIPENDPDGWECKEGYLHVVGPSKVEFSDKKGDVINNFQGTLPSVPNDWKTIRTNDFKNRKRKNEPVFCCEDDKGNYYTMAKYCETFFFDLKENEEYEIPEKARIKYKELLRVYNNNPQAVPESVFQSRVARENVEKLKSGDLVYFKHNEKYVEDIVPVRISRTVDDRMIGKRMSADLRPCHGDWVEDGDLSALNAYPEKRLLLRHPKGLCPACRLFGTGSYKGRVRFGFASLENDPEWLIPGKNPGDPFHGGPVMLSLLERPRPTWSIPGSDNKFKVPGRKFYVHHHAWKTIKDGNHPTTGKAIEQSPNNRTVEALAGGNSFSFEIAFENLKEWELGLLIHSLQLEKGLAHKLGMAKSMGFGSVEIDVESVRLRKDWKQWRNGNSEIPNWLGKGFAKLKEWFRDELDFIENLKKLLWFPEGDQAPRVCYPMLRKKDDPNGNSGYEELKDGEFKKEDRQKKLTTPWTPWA

Chain of DiCas7-11;DiTPR-CHAT NTD (chain, as listed by the source |, chain 1 of 2): as the sequence (A0A401FT36 entry or part of it D429A;D654A) above, with A429D, A654D counted along it
Chain of DiCas7-11;DiTPR-CHAT NTD (chain, as listed by the source |, chain 2 of 2): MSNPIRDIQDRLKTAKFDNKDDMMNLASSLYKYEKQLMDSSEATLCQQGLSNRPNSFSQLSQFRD
Chain of DiCas7-11 (A0A401FT36 entry or part of it): as the sequence (A0A401FT36 entry or part of it D429A;D654A) above, with A429D, A654D counted along it
Chain of DiCas7-11;DiTPR-CHAT (chain, as listed by the source |, chain 1 of 2): as the sequence (A0A401FT36 entry or part of it D429A;D654A) above, with A429D, A654D counted along it
Chain of DiCas7-11;DiTPR-CHAT (chain, as listed by the source |, chain 2 of 2): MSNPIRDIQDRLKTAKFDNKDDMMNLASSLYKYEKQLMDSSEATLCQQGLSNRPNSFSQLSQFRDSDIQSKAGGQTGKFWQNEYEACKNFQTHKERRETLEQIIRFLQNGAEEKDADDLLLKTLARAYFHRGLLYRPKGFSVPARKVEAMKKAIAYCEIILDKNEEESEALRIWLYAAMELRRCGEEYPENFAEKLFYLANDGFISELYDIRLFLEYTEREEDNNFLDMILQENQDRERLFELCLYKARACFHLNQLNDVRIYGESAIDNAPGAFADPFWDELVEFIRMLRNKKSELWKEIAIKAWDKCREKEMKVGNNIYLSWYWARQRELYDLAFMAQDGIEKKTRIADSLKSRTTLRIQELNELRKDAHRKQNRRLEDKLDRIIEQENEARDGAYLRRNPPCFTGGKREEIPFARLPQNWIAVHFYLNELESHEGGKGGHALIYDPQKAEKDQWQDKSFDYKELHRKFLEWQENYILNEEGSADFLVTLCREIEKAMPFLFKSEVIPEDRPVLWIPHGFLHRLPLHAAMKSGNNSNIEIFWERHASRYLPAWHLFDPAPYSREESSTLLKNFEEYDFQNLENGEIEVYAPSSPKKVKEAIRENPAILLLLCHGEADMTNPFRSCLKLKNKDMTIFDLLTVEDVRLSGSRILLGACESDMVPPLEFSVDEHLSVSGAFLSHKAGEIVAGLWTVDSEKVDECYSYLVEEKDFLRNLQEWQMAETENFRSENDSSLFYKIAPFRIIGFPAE

Binder	binding result (DiCas7-11;DiTPR-CHAT NTD)	binding result (DiCas7-11;DiTPR-CHAT)	binding result (DiCas7-11)	binding result (DiCas7-11Inactive)
UUGAUGUCACGGAACCUUUGUUGUCUUCGACAUGGGUA (structured_RNA) [mature crRNA in cryo-EM structures, U(-15)-A(23)]	binds	binds	binds	
single spacer pre-crRNA (ssRNA) RNA: GGUUGGAAAGCCGGUUUUCUUUGAUGUCACGGAACCUUUGUUGUCUUCGACAUGGGUAAUCCUCAU				binds
